Measured values taken from a protein production outcome set (Wang et al. 2014).

Experiment: label from the status in PepcDB records

Sequence | protein production
SDLVITQELARAESQQDAASLKKAYELIKSANLGKSEFDPSESFSPDLFVLCAEQALKMRQPEVSEDCIQMYFKVKAPITQFLGRAHLCRAQMCAPKSAENLEEFENCVTEYMKAINFAKGEPRYYFLVYNASVLYWQMVRPFLKPGYRHHLIPSLSQIINVLSQTEEEDKEWRAELMLELLECYLQAGRKEEAARFCSTAAPFIKSHVPQKYRQIFSVMVNQRIRNRDVRSNFLKSHCSENCVEIT | not failed
MKLGYSLSKSNAKNFKFYINGSAMGYKNIIINGAKSWNASPYLNTVSKGRDANPHFIISSSTIDRGATVAVCETWAYKGSKLVAKNEITTFKAFRSLSVGDKTETIAHEFGHGLGLGHVKTKNAIMLDVGFTKKIKPQRDDLNGIKAIYKLEHHHHHH | failed
MTGKPLTDYVALGFTALERGDCQEAVNIFRRAQETGPTARSFVGLGLAFHRLGDPPAARWAFAKALDLEPADRDANEWIERIGRPAVPARTSGGRGCRFRAGEDFLQIKENGSWRRFFIKGINLGLGLPGYFPGEYPIHRETYRRWFRLMGELGVNSLRVYAVQSPGFYEALADHNEQGGRLFLFQGIWLELPEDGDFRGRDFLAYAHRQIREAVDSVCGSADFPERPGLPHGSYRRDVSPWTAAYVVGREWESCAVRAFNGRYGRKRGGFAGQFLKVDDGLPFEQWAAEICDYLQSYEHATYDCTHPVTTINWPTLDPLTHPSESTYEEGLIRQGFQVNVDVCNEDEDVETFDPALIASRQGAGFFATYHVYPYYPDFLNNDFLDVENPYREYLKRLRRHHGRQPVVIAEFGVPSSREATHWQRDGWHHGGHDEVSQGKINGYMMEAIRDAGLAGGMLFSWFDEWFKRNWVFLPYELPAERNPFWFNHQDAEQTYGLMAAYPGYPGKVVTLAGRREEWRDASLLQEKRGGAPLHRFGDGRDGARTLVRLSARHDEGFFYLCLETAEPVDFSAAHYLIGLNTCGAKAGETLLPFDTNARSPLGLTFLIHLAGEGASRILVSRFYDKYLNEGLPVRPVPSDTGEWVVMQNITNHRRISKDGTRFYPSRVFSMSGLRFGSLDPQSPRFDSLADWHVSGTLIELRLPWGLLNITDPSSRQVLWMAEQGGKTHTTDGIAAIACSYRPSGEGLAARPTGGRTNLADSLPAGLGSDAVRRYQWERWNHPLYHTYLKRSYYLYRDVLDRMPE | failed
MEHKISEPNARVDVADVLRGLAVMGIIILHSIEHFNFYSFPDTVPCEWMKFTDKAIWNGLFFVFSNKAYAIFALLFGFSFYIQDNNQQRRGKDFRLRFIWRMALLFIIGQFNAAFFTGEILTMYAMLGLILPLSCRLSDRSIAIFATLLIIQPIDWCKVIYALCNPDYVAGPGLASHYFGIAFDVQKNGTFLETIRMNLWEGQLANLTWALEHGRILQTPALFLFGMLVGRKGLFLYSEQNEQHWLKALGISLICFFPLYGLNNMLPEFITRNAIRVPLQLIISSLSNLSFMVLLVSGLLITFYRIKDRRFLMRFTSYGKMSLTNYIGQSVIGSLLFYHWGFELGRFLGITYSFFFGILFVLLQMAFCSWWLSHFKHGPFEGLWKRLTWIGNNKRK | failed
MKTLFSIYLFLSLNPLFLEANEITWSKFLENFKNKNDDDKPKPLTIDKNNEKQQILDKNQQILKRALEKSLKFFFIFGYNYSQATFSTSNQTLTFVANSIGFNTATGLEHFLRNHPKVGFRIFSVYNYFHSVSLSQPQTLMVQNYGGALDFSWIFVDKNIYRFRSYLGIALEQGVLLVDTIKPGAITTIIPRTKKTFFQAPLRFGFIVDFIGYLSLQLGIEMPLVRNVFYTYNNHQERFKPRFNANLSLIVSF | failed
VLAPVVPGKALEFPQDFGAHNDFRIEWWYVTGWLETPTGKPLGFQITFFRTATEIDRDNPSHFAPDQLIIAHVALSDPAIGKLQHDQKIARAGFDLAYARTGNTDVKLDDWIFVRETDGRYRTRIEAEDFTLTFILTPSQPLMLQGENGFSRKGPGAPQASYYYSEPHLQVSGIINRQGEDIPVTGTAWLDREWSSEYLDPNAAGWDWISANLDDGSALMAFQIRGKDDSKIWAYAALRDASGHTRLFTPDQVSFHPIRTWRSARTQAVYPVATRVLTGETEWQITPLMDDQELDSRASAGAVYWEGAVTFTRDGQPAGRGYMELTGYVRPLSM | not failed
YYLIVSQLLGDTASVKLLVPPGANPHLFSLKPSDAKTLEEADLIVANGLGLEPYLEKYREKTVFVSDFIPALLLIDDNPHIWLDPFFLKYYIVPGLYQVLIEKFPEKQSEIKQKAEEIVSGLDTVIRDSFKALLPYTGKTVVMAHPSFTYFFKEFGLELITLSSGHEHSTSFSTIKEILRKKEQIVALFREPQQPAEILSSLEKELRMKSFVLDPLGVNGEKTIVELLRKNLSVIQEALK | not failed
MANDPRHLPSRKLLVTCALPYANGSIHLGHMLEHIQADIWVRYQRLRGNTVNFICADDAHGTPIMLKAQQMGITPEEMIAAVSEEHQKDFAGFDISFDNYHSTHSEENRELASHIYLELKKNGFISSRTISQLFDPEKEMFLPDRFVKGTCPKCKSEDQYGDNCDNCGETYSPTELINPKSAVSGATPVMKDSEHFFFDLPQFESMLKEWTRSGSLQSETANKMQEWFESGLQQWDISRDAPYFGFEIPGEKDKFFYVWLDAPIGYMGSFKNLCNKRDDLDFDEYWNKDSKTELYHFIGKDIVYFHSLFWPAMLEGSGFRKPNNVFVHGYVTVNGAKMSKSKGTFVKASTYLDHLDPECLRYYYAAKLNSRIDDLDLNLEDFTQRVNADVVNKIVNLASRNAGFIAKRFEGKLSDNFAEPELYNEFVAAADRIAELFEAREFGRAIREITALADKANQYVDEKAPWVVAKEEGKDQELQEICSVGINLFRVLMTYLKPVMPALAARTEAFLNQELTWEGIAQPLTGHEITKFKALFNRIDPKNIEAMIEASKEDAAAEMAAKEKAEAAKTETELSKDPIADEIEFDTFAQVDLRIARIISCEEVPKANKLLKFQLDIGGETRQVFSGIKSAYKPEELEGKLTVMVANLKPRKMKFGMSEGMILAAGPGGSDLWILEPHEGAQPGMRVM | failed
MAADYTHFIHRQHAPPEVCLSAFSGHNDALDFPDSEGSPVSQSLIAALQNPALFPHPVEGFQVIETHISWVLLTGPFAYKVKKPVNFGFLDFTSLDAREHFCGEELRLNQRLTEDLYLEVLPITGSAEAPVLGGDGPAIEYVLKMRQFPQSQLLSTLQANSELTTAHIDEMARQIAHFHLNAPKVPAEHEAGTPESVMAPVRQNFEQIRPFLSDKADLQQLEALEAWAETSFERLKPLLAQRKSEGFIRECHGDIHLGNATLIDGKVVIFDCIEFNEPFRFTDVYADTGFLAMDLEDRGLKSLARRFISQYLELTGDYQGLELLNFYKAYRALVRAKVSLFSMPAEATPVQRATTLRQYRNYANLAESYSTIPSRFLAITSGISAVGKSRVAMRLVEALGAVRLRSDVERKRLFGEQQVPNDPHAGIYSSEASSATYARLHEIAETILRAGFPVVIDATYLKRAQRDAAAKVAEATGTPCLIIDCNAPEAVVASWLAQRQADQNDPSDATLEVIANQQATREALTDEELLRSKRIETNESGSLDALVANIRQRLPGLLEHHHHHH | failed
MTQETALGAALKSAVQTMSKKKQTEMIADHIYGKYDVFKRFKPLALGIDQDLIAALPQYDAALIARVLANHCRRPRYLKALARGGKRFDLNNRFKGEVTPEEQAIAQNHPFVQQALQQQSAQAAAETLSVEAEAAESSAAE | not failed
MRLLIAGRLFFGLGLALWALGAGPSPARAAGMSLIRDAEIENTIAMIATPLLRAASIGDRAITFRLINDDTINAFATTEMRVFVYTGLFLKTEGPDELKGVIAHEMGHLAGGHLLRMKDEMANASMTALVGMLAGAAAGIASGRGDVGSAVMMGTNQAAMRGFLTFSRTQESSADSFAMRMLDATGQSAAGMLKFFRKLGDQEALITASQDPYVRTHPLTRDRITAVADHVAHSRFSDVPPSPAEVLAYQRAKAKLMAFLKSTGATLAAYPATDRSVAARYARAIAYYRAGDLGRALPLIDGLIAEDPNDPYFEELRGQMLFENQRLREALGSYTKAARLAPTEPLILVSLAHVQVELGDRPLLENALTNLNAALGLDPTNSFAWRQMANASGKLGDEAMAAYYLAEMALSQGDPREALAHAKRAEGRIPKGSPQGLRLQDLIAEAERQKKRQEDRD | failed
NAEKVALAKKVADESAVLLENRNDILPLDLNKYKSVAVVGPNSNQAVLGDYAWTMGDTKEAVSLLQGLQESAGDKIMIRHAEGCDWWSQDKSHIAEAVEVVRNSDIAVVAVGTRSTYLGRSPKYSTAGEGFDLSSLELPGVQEELLKEIKKTGKPMIVVLIAGKPLAMPWVKENADALLVQWYAGEQQGCTLADILLGKVNPSGKLNVSFPRSTGNTPCFYNHFVTDREEPFDQPGTPEEPKGHYIFDKPEPLWNFGHGKSYTTF | not failed
MPVRTSQASQGNRGKGVGLGLALASAVAFGGSGVAAKPLIEAGLDPLHVVWLRVSGAALVMLPLAVRHRALLRRRPALLIGFGLLAVAGVQACYFAAISRIPVGVALLVEYLAPALVLGWVRFVQRRPVTRAAALGVVLAVGGLACVVEVWSGLGFDALGLLLALAAACCQVGYFVLSDQGSETGEDAPDPLGVIAFGLLIGALVLTVVARPWTMDWSVLGGRADMNGDSVPAALLLGWIVLIATVVAYVTGVLSVRRLSPQVAGVVACLEAVIATVLAWVLLGEHLSAPQIIGGAVVLVGAFIAQSSAPAKPSDGPVTGGGGAERQLSARGTAA | failed
MIKSIKKNLKPKILISNLILIIGIVIFVTLYGAVFGSANSLVGVCAITAMLMFVDVHLSLKLNEAIITTVLSFVLMGVSSQIASINPFLGFVVNFISIFVVSYLVTNAMETKAYLPFILCYVFIEGTPITWSELPRRLIALFVGGALIALVYYFSHRKKDDSDHMNISEMIKTMNKNTLQFNFSLRMALAVSIAMLLGSILGFQKSMWISITAMSITQPHFDDTKTRVKERFFGTLIGSAIFVLIFVYIVPQQFSSIVLLILSYIYTFIKEYKIKMIFITMSSLGAAMILFQPGVSVPMRIAFIVMGIGIALVVNKVIYGRLKLEESNEELDETIKDIDKVNDEF | failed
MKAALLDQVARVGKALANGRRLQILDLLAQGERAVEAIATATGMNLTTASANLQALKSGGLVEARREGTRQYYRIAGEDVARLFALVQVVADEHLADVAVLEHHHHHH | failed
MTLPQTMKAAVVHAYGAPLRIEEVKVPLPGPGQVLVKIEASGVCHTDLHAAEGDWPVKPPLPFIPGHEGVGYVAAVGSGVTRVKEGDRVGIPWLYTACGCCEHCLTGWETLCESQQNTGYSVNGGYAEYVLADPNYVGILPKNVEFAEIAPILCAGVTVYKGLKQTNARPGQWVAISGIGGLGHVAVQYARAMGLHVAAIDIDDAKLELARKLGASLTVNARQEDPVEVLQRDIGGAHGVLVTAVSNSAFGQAIGMARRGGTIALVGLPPGDFPTPIFDVVLKGLHIAGSIVGTRADLQEALDFAGEGLVKATIHPGKLDDINQILDQMRAGQIEGRIVLEM | not failed
MITTRTARQCGQADYGWLQARYTFSFGHYFDPKLLGYASLRVLNQEVLAPGAAFQPRTYPKVDILNVILDGEAEYRDSEGNHVQASAGEALLLSTQPGVSYSEHNLSKDKPLTRMQLWLDACPQRENPLIQKLALNMGKQQLIASPEGAMGSLQLRQQVWLHHIVLDKGESANFQLHGPRAYLQSIHGKFHALTHHEEKAALTCGDGAFIRDEANITLVADSPLRALLIDLPV | not failed
MPKKAREWGALDVKRAAHPGDGANVWHAVGGVAGLLLQITPTGAKSWLLRTTVAGTRRAMGLGSYPEVGLAEARERAREAKRKIAAGVDPIEERKATRAALAAAQRRSLTFADAADKWIKAKLSDRPEKSQKAVRATLTAYSFPEIGALTVQELTPQDVVRALNTIWTAKPDTATKMRGYLEAILSWATVSGYRTGDNPARWAGNLKELLPAPSVVAKGRAGNFPAVPVARLADWWEELGQREGMGATALRFAALTAARSGEVRGALWSEVDLDAALWVVPGARMKMGREHRVPLSGPAVALLRGLPRLAGTGDLIFPGPRGGILSDMSVSAVMRRMQEDAETEAKMAGRPVSAAGWRDTRTGRPAVPHGLRSSFRDWAAEVGYDRDMAEIALAHLVGSEVERAYRRSDMLERRRAMMERWADVLAGRSGASVVEFRRA | failed
